The values that follow come from patent US20210155689A1 (SHANGHAI PHARMAEXPLORER, published 2021).

Where a chain is given by its changes, count along the chain named.

Experiment [1] addresses T1, LAG-3-hFc protein (human LAG-3 extracellular region with hFc tag) (human, UniProt P18627 23-450).
T1 construct: also called hLAG-3-hFc; LAG-3 protein; not shown: human IgG Fc fragment (hFc) of the pCpC vector
T1 sequence: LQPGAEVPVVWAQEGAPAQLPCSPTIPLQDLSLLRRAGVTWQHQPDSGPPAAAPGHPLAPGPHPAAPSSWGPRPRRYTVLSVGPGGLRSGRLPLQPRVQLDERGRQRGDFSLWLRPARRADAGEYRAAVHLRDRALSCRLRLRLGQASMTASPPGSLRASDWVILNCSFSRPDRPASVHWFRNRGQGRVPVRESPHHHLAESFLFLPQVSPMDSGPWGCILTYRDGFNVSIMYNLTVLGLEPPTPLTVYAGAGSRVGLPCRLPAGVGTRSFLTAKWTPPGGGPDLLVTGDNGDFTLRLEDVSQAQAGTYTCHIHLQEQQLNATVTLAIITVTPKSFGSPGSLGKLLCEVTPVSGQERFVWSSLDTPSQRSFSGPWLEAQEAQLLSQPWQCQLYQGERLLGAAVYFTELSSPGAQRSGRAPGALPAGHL
Briefly: FACS, inhibition of LAG-3-hFc binding to MHC II on Raji cells, antibody 0.000 nM. As to the method:
(§1) The FACS reaction plate incubating the Raji cells was centrifuged to discard the supernatant. The above mixture was added as 100 μl per well to Raji cells and incubated on ice for 1-2 hours. The plate was washed twice with blocking solution (PBS, 2% fetal bovine serum) by centrifugation, added with 100 microliters of fluorescent (Alexa 488)-labeled secondary antibodies per well, and incubated on ice for 1.0 hours. The plate was washed 2-3 times by centrifugation with blocking solution (PBS, 2% fetal bovine serum), added with 100 microliters of PBS per well to suspend cells, and detected using FACS (FACS Calibur, BD) and the results were analyzed. Wherein, the IgG control was murine IgG, and the data in the table is the inhibition rate (%).
(In flow cytometry, cells or beads pass a laser one at a time.)

For experiment [2], the target named is T2, human LAG-3 on cells (HEK293-hLAG-3 stable cell line) (human, UniProt P18627 23-525).
T2 sequence: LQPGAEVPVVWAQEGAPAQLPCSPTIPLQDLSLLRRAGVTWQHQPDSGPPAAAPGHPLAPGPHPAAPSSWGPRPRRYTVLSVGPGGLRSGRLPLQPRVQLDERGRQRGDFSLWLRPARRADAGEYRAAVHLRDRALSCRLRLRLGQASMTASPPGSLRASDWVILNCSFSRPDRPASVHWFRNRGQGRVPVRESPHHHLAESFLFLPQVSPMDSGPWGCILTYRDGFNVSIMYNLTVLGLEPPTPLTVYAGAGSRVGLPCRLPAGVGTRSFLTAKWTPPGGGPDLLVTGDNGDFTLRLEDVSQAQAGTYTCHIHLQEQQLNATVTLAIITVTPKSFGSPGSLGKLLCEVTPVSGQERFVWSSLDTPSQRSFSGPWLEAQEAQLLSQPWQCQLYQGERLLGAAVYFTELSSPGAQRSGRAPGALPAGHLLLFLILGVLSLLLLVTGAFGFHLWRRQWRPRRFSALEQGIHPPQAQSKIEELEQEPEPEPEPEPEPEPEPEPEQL
The experiment can be described thus: FACS, HEK293-hLAG-3, antibody 1.600 nM. The text has this: (§2) The pIRES plasmid with the monkey-derived full-length gene was transfected into the HEK293 cell line to construct a HEK293 stable cell line containing monkey LAG-3 (herein referred to as HEK293-cLAG-3 stable cell line). The HEK293-hLAG-3 stable cell line and HEK293-cLAG-3 stable cell line were expanded in a T-75 cell culture flask to a 90% confluence. The medium was aspirated, and the cells were washed with HBSS (Hanks' Balanced Salt Solution) 1-2 times, then treated with a enzyme-free cell dissociation fluid (Versene solution: Life technology) and the cells were collected. The cells were washed with HBSS buffer for 1-2 times. After counted, the cells were diluted with HBSS to 1-2×10⁶ cells per ml, added with 1% goat serum blocking solution, incubated on ice for 20-30 minutes, and then washed with HBSS for 2 times by centrifugation. The collected cells were suspended in the FACS buffer (HBSS+1% BSA) to 2×10⁶ cells/ml, added as 100 microliters per well to a 96-well FACS reaction plate, added with 100 microliters per well of the antibody sample to be tested, incubated on ice for 1-2 hours. The plate was washed twice with the FACS buffer by centrifugation, added with 100 microliters of fluorescent (Alexa 488)-labeled secondary antibodies per well, and incubated on ice for 0.5-1.0 hours. The plate was washed 2-3 times with FACS buffer by centrifugation, added with 100 μl fixative solution (4% Paraformaldehyde) per well to suspend the cells. 5-10 minutes later, it was washed 1-2 times with FACS buffer by centrifugation. The cells were suspended with 100 microliters of FACS buffer, FACS (FACSCalibur, BD) was used for detection and the results were analyzed.

In experiment [3] the target is T3, human LAG-3 protein with hFc tag (hLAG-3-hFc protein) (human, UniProt P18627 23-450).
T3 construct: also called immunogen 1; LAG-3 extracellular domain protein; not shown: human IgG Fc fragment (hFc) of the pCpC vector
T3 sequence: T1 sequence
The experiment can be described thus: FACS, blocks LAG-3-hFc binding to MHC II on Raji; 0.823 nM. As to the method:
as §1

Experiment [4] deals with T4, human LAG-3 (full length, on the cell surface) (human, UniProt P18627 23-525).
T4 construct: Full-length human LAG-3 expressed on cells; also called HEK293-hLAG-3; HEK293 cells transfected with LAG-3 gene
T4 sequence: T2 sequence
Briefly: FACS, HEK293-hLAG-3; 200.000 nM.
Source text: as §2

B1: 556F6B8 mouse-human chimeric antibody (antibody, V domains shown)
VH: RVQLKQSGPGLVQPSQSLSITCTVSGFSLIKYGVHWVRQSPGEGLEWLGVIWRGGITDYNAAFMSRLSITKDNSKSQVFFKMNSLQADDTAIYYCAKWDGPLAMDYWGQGTSVTVSS
VL: DIVMTQSHKFLSTSVGDRVSITCKASQDVGTTVAWYQQKPGQSPKLLIYWASTRHTGVPDRFTGSGSGTDFTLTISNVQSEDLADYFCQQYSSYPYTFGGGTKLEIK
notes: also called mAb123-556F6B8; 556F8B8
Take B1: the “Inhibition rate (%)” value in experiment [1] was found to be 12.9%. The same molecule had a Mean fluorescence intensity in experiment [2] of 39.1.

B2: 556F6B8 (mouse antibody purified from hybridoma) (antibody, V domains shown)
VH: B1 VH
VL: B1 VL
notes: also called mAb123-556F6B8
As to B2, the “Inhibition rate (%)” value in experiment [3] amounted to 20.1%. This molecule also registered a Mean fluorescence intensity in experiment [4] of 83.7 MFI.

B3: 405B8H3 (mouse antibody purified from hybridoma) (antibody, V domains shown)
VH: QVQLQQSGAELVRPGASVTLSCKASGYTFTDYEMHWVKQTPVHGLEWIGATDPETGNSAYNQKFKGKAIMTADKSSSTAYMELRSLTSEDSAVYYCISTGWNDWGQGTSLTVSS
VL: DIKMTQSPSSMYASLGERVTITCKASQDINSYLSWFQQKPGKSPKTLIYRADRLLDGVPSRFSGSGSGQDYSLTISSLEYGDMGIYYCLQYDEFPYTFGGGTKLEIK
notes: also called mAb103-405B8H3; 405B81-13
With B3, in experiment [3], the “Inhibition rate (%)” value worked out at 10.9%. The molecule also came in with a Mean fluorescence intensity in experiment [4] of 324 MFI.

B4: 405B8H3 mouse-human chimeric antibody (antibody, V domains shown)
VH: B3 VH
VL: B3 VL
notes: also called mAb103-405B8H3
For B4, the “Inhibition rate (%)” value in experiment [1] is -15.6%. The Mean fluorescence intensity in experiment [2] was 62.3.

B5: 105F1E10 (mouse antibody purified from hybridoma) (antibody, V domains shown)
VH: EVQLQQSGPELVKPGASVKMSCRASGYTFTDFKMHWMKQSHGKSLEWIGYIAPNNGGTAYNQKFRGKATLTVNESSNTAYMELRSLTSEDSAVYYCVDWDDVDYWGQGTTLTVSS
VL: B3 VL with P40S, D52N, L55V, G81E, D92V, Y96L, G100A, I106L
notes: also called mAb009-105F1E10
As to B5, the “Inhibition rate (%)” value in experiment [3] was found to be 7%. Further, the Mean fluorescence intensity in experiment [4] stood at 330 MFI.

B6: 105F1E10 mouse-human chimeric antibody (antibody, V domains shown)
VH: B5 VH
VL: B3 VL with P40S, D52N, L55V, G81E, D92V, Y96L, G100A, I106L
notes: also called mAb009-105F1E10
In the case of B6, the “Inhibition rate (%)” value in experiment [1] is -32.3%. Moreover, in experiment [2], the Mean fluorescence intensity worked out at 34.7.

B7: 409D4E10 mouse-human chimeric antibody (antibody, V domains shown)
VH: B3 VH with Y27N, G56D, S58T, M70L, A72T, S98T, T99S
VL: B3 VL with D52N, G81E, D92N
notes: also called mAb112-409D4E10
Regarding B7, in experiment [1], the “Inhibition rate (%)” value was -1.7%. The Mean fluorescence intensity in experiment [2] was found to be 56.8.

B8: 409B11E12 mouse-human chimeric antibody (antibody, V domains shown)
VH: B3 VH with P41T, G56S, N57Y, M70L, S98A
VL: B3 VL with I2L, D52N, G81E
notes: also called mAb104-409B11E12
Take B8: the “Inhibition rate (%)” value in experiment [1] is -11.8%. The Mean fluorescence intensity in experiment [2] was found to be 69.

B9: 409B11E12 (mouse antibody purified from hybridoma) (antibody, V domains shown)
VH: B3 VH with P41T, G56S, N57Y, M70L, S98A
VL: B3 VL with I2L, D52N, G81E
notes: also called mAb104-409B11E12
Consider B9, for which the “Inhibition rate (%)” value in experiment [3] was 15.3%. The molecule also showed a Mean fluorescence intensity in experiment [4] of 144 MFI.

B10: 409D4E10 (mouse antibody purified from hybridoma) (antibody, V domains shown)
VH: B3 VH with Y27N, G56D, S58T, M70L, A72T, S98T, T99S
VL: B3 VL with D52N, G81E, D92N
notes: also called mAb112-409D4E10
On to B10, for which the “Inhibition rate (%)” value in experiment [3] came to 18.2%. This molecule returned a Mean fluorescence intensity in experiment [4] of 154 MFI.
